Measured values: the supplement of paper PMC9112550, “Optimization of the antimicrobial peptide Bac7 by deep mutational scanning” (BMC Biology, 2022)

What follows are sequences tested on Escherichia coli TOP10 (assay: shrunken log2 fold change of peptide-encoding DNA abundance (4.5 h post-induction vs induction); higher = less antimicrobial activity (less host growth inhibition)). Conditions: time post-induction: 4.5 h; library: site-saturation at positions 5, 18, 19, 20.
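Further: peptides expressed intracellularly from a pBAD plasmid library in pooled LB shake-flask culture, induced with 0.3% L-arabinose, DNA abundance read by NGS, three biological replicates, DESeq2 with apeglm shrinkage.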

Question: For RRIRIRPPRLPRPRPRPRFLPRP, which “shrunken log2 fold change” value is on record?
Answer: Its value is -0.216.

Question: How did the “shrunken log2 fold change” value turn out when RRIRIRPPRLPRPRPRPRFMPRP was run?
Answer: Its value is -0.143.

Question: Which “shrunken log2 fold change” value does the source give for RRIRIRPPRLPRPRPRPRGRPRP here?
Answer: The value was 0.229.

Question: For RRIRIRPPRLPRPRPRPRGTPRP, which “shrunken log2 fold change” value is on record?
Answer: The value was 0.277.

Question: For RRIRIRPPRLPRPRPRPRHDPRP, which “shrunken log2 fold change” value is on record?
Answer: Its value is -0.385.

Question: For RRIRIRPPRLPRPRPRPRHKPRP, which “shrunken log2 fold change” value is on record?
Answer: The value was -0.704.

Question: How did the “shrunken log2 fold change” value turn out when RRIRIRPPRLPRPRPRPRKMPRP was run?
Answer: The value was 0.142.

Question: For RRIRIRPPRLPRPRPRPRLRPRP, which “shrunken log2 fold change” value is on record?
Answer: The value was -0.0272.

Question: How did the “shrunken log2 fold change” value turn out when RRIRIRPPRLPRPRPRPRMNPRP was run?
Answer: Its value is -0.593.

Question: For RRIRIRPPRLPRPRPRPRNFPRP, which “shrunken log2 fold change” value is on record?
Answer: Its value is -0.283.

Question: How did the “shrunken log2 fold change” value turn out when RRIRIRPPRLPRPRPRPRQPPRP was run?
Answer: The value was -0.0694.

Question: For RRIRIRPPRLPRPRPRPRRHPRP, which “shrunken log2 fold change” value is on record?
Answer: The value was -0.147.

Question: RRIRIRPPRLPRPRPRPRTFPRP was tested. Which “shrunken log2 fold change” value did it give?
Answer: Its value is -0.143.

Question: With RRIRIRPPRLPRPRPRPRVPPRP as the sequence, how does the “shrunken log2 fold change” value read?
Answer: Its value is 1.5.

Question: RRIRIRPPRLPRPRPRPRYCPRP was tested. Which “shrunken log2 fold change” value did it give?
Answer: The value was -0.157.

Question: For RRIRIRPPRLPRPRPRPSADPRP, which “shrunken log2 fold change” value is on record?
Answer: Its value is -0.235.

Question: With RRIRIRPPRLPRPRPRPSAIPRP as the sequence, how does the “shrunken log2 fold change” value read?
Answer: The value was -0.0599.

Question: For RRIRIRPPRLPRPRPRPSCTPRP, which “shrunken log2 fold change” value is on record?
Answer: The value was -0.407.

Question: Which “shrunken log2 fold change” value does the source give for RRIRIRPPRLPRPRPRPSDHPRP here?
Answer: The value was -0.91.

Question: With RRIRIRPPRLPRPRPRPSGIPRP as the sequence, how does the “shrunken log2 fold change” value read?
Answer: Its value is -0.469.

Question: For RRIRIRPPRLPRPRPRPSGLPRP, which “shrunken log2 fold change” value is on record?
Answer: Its value is 0.0161.

Question: How did the “shrunken log2 fold change” value turn out when RRIRIRPPRLPRPRPRPSGRPRP was run?
Answer: The value was -0.427.

Question: For RRIRIRPPRLPRPRPRPSHLPRP, which “shrunken log2 fold change” value is on record?
Answer: Its value is -0.622.

Question: RRIRIRPPRLPRPRPRPSHTPRP was tested. Which “shrunken log2 fold change” value did it give?
Answer: Its value is -0.595.

Question: RRIRIRPPRLPRPRPRPSIPPRP was tested. Which “shrunken log2 fold change” value did it give?
Answer: The value was -0.867.

Question: How did the “shrunken log2 fold change” value turn out when RRIRIRPPRLPRPRPRPSLDPRP was run?
Answer: The value was -0.564.

Question: RRIRIRPPRLPRPRPRPSLTPRP was tested. Which “shrunken log2 fold change” value did it give?
Answer: The value was -1.12.

Question: With RRIRIRPPRLPRPRPRPSMRPRP as the sequence, how does the “shrunken log2 fold change” value read?
Answer: Its value is -0.000106.

Question: Which “shrunken log2 fold change” value does the source give for RRIRIRPPRLPRPRPRPSMSPRP here?
Answer: The value was -0.6.

Question: Which “shrunken log2 fold change” value does the source give for RRIRIRPPRLPRPRPRPSMVPRP here?
Answer: The value was -0.654.

Question: With RRIRIRPPRLPRPRPRPSNTPRP as the sequence, how does the “shrunken log2 fold change” value read?
Answer: The value was -0.515.

Question: Which “shrunken log2 fold change” value does the source give for RRIRIRPPRLPRPRPRPSPSPRP here?
Answer: The value was 0.0467.

Question: With RRIRIRPPRLPRPRPRPSQSPRP as the sequence, how does the “shrunken log2 fold change” value read?
Answer: The value was -0.0979.

Question: Which “shrunken log2 fold change” value does the source give for RRIRIRPPRLPRPRPRPSRVPRP here?
Answer: The value was -0.0608.

Question: How did the “shrunken log2 fold change” value turn out when RRIRIRPPRLPRPRPRPSSLPRP was run?
Answer: Its value is -0.713.

Question: Which “shrunken log2 fold change” value does the source give for RRIRIRPPRLPRPRPRPSTAPRP here?
Answer: Its value is -0.263.

Question: RRIRIRPPRLPRPRPRPSTIPRP was tested. Which “shrunken log2 fold change” value did it give?
Answer: The value was -0.361.

Question: RRIRIRPPRLPRPRPRPSVKPRP was tested. Which “shrunken log2 fold change” value did it give?
Answer: Its value is -0.037.

Question: Which “shrunken log2 fold change” value does the source give for RRIRIRPPRLPRPRPRPSVPPRP here?
Answer: The value was -0.835.

Question: Which “shrunken log2 fold change” value does the source give for RRIRIRPPRLPRPRPRPSWMPRP here?
Answer: Its value is -0.562.

Question: Which “shrunken log2 fold change” value does the source give for RRIRIRPPRLPRPRPRPSYSPRP here?
Answer: The value was -0.694.

Question: How did the “shrunken log2 fold change” value turn out when RRIRIRPPRLPRPRPRPTANPRP was run?
Answer: Its value is -0.149.

Question: With RRIRIRPPRLPRPRPRPTASPRP as the sequence, how does the “shrunken log2 fold change” value read?
Answer: Its value is 0.132.

Question: Which “shrunken log2 fold change” value does the source give for RRIRIRPPRLPRPRPRPTDNPRP here?
Answer: Its value is -0.964.

Question: How did the “shrunken log2 fold change” value turn out when RRIRIRPPRLPRPRPRPTDQPRP was run?
Answer: Its value is -0.51.

Question: RRIRIRPPRLPRPRPRPTDRPRP was tested. Which “shrunken log2 fold change” value did it give?
Answer: The value was -0.192.

Question: RRIRIRPPRLPRPRPRPTESPRP was tested. Which “shrunken log2 fold change” value did it give?
Answer: The value was -0.433.

Question: How did the “shrunken log2 fold change” value turn out when RRIRIRPPRLPRPRPRPTHHPRP was run?
Answer: Its value is 0.155.

Question: RRIRIRPPRLPRPRPRPTISPRP was tested. Which “shrunken log2 fold change” value did it give?
Answer: Its value is -0.385.

Question: RRIRIRPPRLPRPRPRPTKHPRP was tested. Which “shrunken log2 fold change” value did it give?
Answer: The value was -0.528.

Question: With RRIRIRPPRLPRPRPRPTMFPRP as the sequence, how does the “shrunken log2 fold change” value read?
Answer: Its value is -0.763.

Question: With RRIRIRPPRLPRPRPRPTMHPRP as the sequence, how does the “shrunken log2 fold change” value read?
Answer: Its value is -0.443.

Question: Which “shrunken log2 fold change” value does the source give for RRIRIRPPRLPRPRPRPTPTPRP here?
Answer: The value was 0.387.

Question: For RRIRIRPPRLPRPRPRPTQEPRP, which “shrunken log2 fold change” value is on record?
Answer: Its value is 0.0113.

Question: Which “shrunken log2 fold change” value does the source give for RRIRIRPPRLPRPRPRPTRKPRP here?
Answer: The value was -0.101.

Question: How did the “shrunken log2 fold change” value turn out when RRIRIRPPRLPRPRPRPTSIPRP was run?
Answer: Its value is -0.182.

Question: How did the “shrunken log2 fold change” value turn out when RRIRIRPPRLPRPRPRPTTEPRP was run?
Answer: The value was 0.086.

Question: For RRIRIRPPRLPRPRPRPTTHPRP, which “shrunken log2 fold change” value is on record?
Answer: The value was -0.441.

Question: Which “shrunken log2 fold change” value does the source give for RRIRIRPPRLPRPRPRPTYHPRP here?
Answer: The value was -0.949.

Question: With RRIRIRPPRLPRPRPRPTYKPRP as the sequence, how does the “shrunken log2 fold change” value read?
Answer: The value was -1.09.

Question: With RRIRIRPPRLPRPRPRPVAGPRP as the sequence, how does the “shrunken log2 fold change” value read?
Answer: The value was -0.0858.

Question: RRIRIRPPRLPRPRPRPVASPRP was tested. Which “shrunken log2 fold change” value did it give?
Answer: Its value is -0.14.

Question: How did the “shrunken log2 fold change” value turn out when RRIRIRPPRLPRPRPRPVCRPRP was run?
Answer: The value was 1.56.

Question: With RRIRIRPPRLPRPRPRPVDAPRP as the sequence, how does the “shrunken log2 fold change” value read?
Answer: Its value is -0.0281.

Question: For RRIRIRPPRLPRPRPRPVDYPRP, which “shrunken log2 fold change” value is on record?
Answer: The value was -0.0672.

Question: For RRIRIRPPRLPRPRPRPVEIPRP, which “shrunken log2 fold change” value is on record?
Answer: Its value is -0.0212.

Question: Which “shrunken log2 fold change” value does the source give for RRIRIRPPRLPRPRPRPVFSPRP here?
Answer: The value was -0.626.

Question: How did the “shrunken log2 fold change” value turn out when RRIRIRPPRLPRPRPRPVHRPRP was run?
Answer: The value was -0.194.

Question: Which “shrunken log2 fold change” value does the source give for RRIRIRPPRLPRPRPRPVKGPRP here?
Answer: Its value is -0.0688.

Question: Which “shrunken log2 fold change” value does the source give for RRIRIRPPRLPRPRPRPVKLPRP here?
Answer: Its value is -0.0316.

Question: Which “shrunken log2 fold change” value does the source give for RRIRIRPPRLPRPRPRPVLMPRP here?
Answer: The value was -0.229.

Question: How did the “shrunken log2 fold change” value turn out when RRIRIRPPRLPRPRPRPVMAPRP was run?
Answer: Its value is -0.526.

Question: For RRIRIRPPRLPRPRPRPVPSPRP, which “shrunken log2 fold change” value is on record?
Answer: Its value is -0.217.

Question: How did the “shrunken log2 fold change” value turn out when RRIRIRPPRLPRPRPRPVPTPRP was run?
Answer: The value was 0.0576.

Question: For RRIRIRPPRLPRPRPRPVQNPRP, which “shrunken log2 fold change” value is on record?
Answer: Its value is -0.425.
